B1: VHH C5 including C-terminal His6-tag (VHH)
VHH: QVQLVESGGGLVQAGGSLRLSCAASGRRFMVVAMGWYRQAPGNQRELVASITNGGTTNYAGSVKGRFTISGDSAKNTVYLHMNSLKPEDTAVYYCTTDVVFRDGNGQIQSNWGQGTQVTVSS
notes: Alpaca-derived
B2: alpha2-antiplasmin (protein)
chain: NQEQVSPLTLLKLGNQEPGGQTALKSPPGVCSRDPTPEQTHRLARAMMAFTADLFSLVAQTSTCPNLILSPLSVALALSHLALGAQNHTLQRLQQVLHAGSGPCLPHLLSRLCQDLGPGAFRLAARMYLQKGFPIKEDFLEQSEQLFGAKPVSLTGKQEDDLANINQWVKEATEGKIQEFLSGLPEDTVLLLLNAIHFQGFWRNKFDPSLTQRDSFHLDEQFTVPVEMMQARTYPLRWFLLEQPEIQVAHFPFKNNMSFVVLVPTHFEWNVSQVLANLSWDTLHPPLVWERPTKVRLPKLYLKHQMDLVATLSQLGLQELFQAPDLRGISEQSLVVSGVQHQSTLELSEVGVEAAAATSIAMSRMSLSSFSVNRPFLFFIFEDTTGLPLFVGSVRNPNPSAPRELKEQQDSPGNKDFLQSLKGFPRGDKLFGPDLKLVPPMEEDYPQFGSPK
B3: VHH A11 including C-terminal His6-tag (VHH)
VHH: QVQLVETGGGLVQAGGSLRLSCAASGNIFSINAMDWYRQAPGKERELVAAITSGGTTNYADSVKGRFTISRDNAKDTVYLQMNSLKPEDAAFYYCNADGYYSDYDKNLAEFNSWGQGTQVTVSS
notes: Alpaca-derived

Tests used:
[1] = biological target: T1, plasmin (Homo sapiens, UniProt P00747); assay: Stability of plasmin (autocatalytic degradation) in activation buffer; format: biochemical; settings: 100 mM TXA or lysine in buffer
T1 construct: human Lys-plasmin which is prepared from homogeneous Glu-plasminogen using uPA; purchased Haematologic Technologies, Inc. (Essex Junction, VT)

[2] = biological target: T1, plasmin; assay: Activated factor V-inactivation assay (prothrombinase assay); format: biochemical
Description: FIG. 6. (A) Influence of VHHs on plasmin-mediated FVa cleavage. Plasmin (1.5 nM) was incubated with increasing concentrations of VHHs for 30 min at 37° C. After addition of FVa (30 pM) and further incubation for 30 min, FXa (0.52 pM), prothrombin (10 nM) and a fluorogenic thrombin substrate (100 μM) were added and the FVa-dependent thrombin generation was measured. The FVa inactivation rate measured in the absence of VHHs or plasmin inhibitors was set as 100%. […] The data are presented as mean±SD of two independent measurements.
Plasmin-mediated inactivation of activated factor V (FVa) was measured using a prothrombinase assay as recently described (Hamedani 2020). Briefly, 1.5 nM plasmin in assay buffer (20 mM Tris-HCl, 137 mM NaCl, 10 mg/ml phospholipids, 5 mM CaCl2, 1 mg/ml BSA, pH 7.4) was preincubated with VHHs (0.1 nM-10 μM final concentrations) for 30 min at 37° C. Then, 60 μl of the mixture were mixed with 60 μl of […] FVa. After further incubation for 30 min, 25 μl of the reaction mixture were mixed with 50 μl of 1.3 μM human FXa and 100 μM fluorogenic thrombin substrate (Boc-Asp(OBzl)-Pro-Arg-AMC) and 50 μl of 10 nM human prothrombin. Thrombin catalyzed substrate hydrolysis was monitored at λex of 360 nm and λem of 460 nm using the Synergy 2 microplate reader.

[3] = system: citrate-anticoagulated whole blood; assay: Rotational thrombelastometry clot lysis in tPA-spiked whole blood; format: biochemical; settings: tPA-spiked whole blood
Excerpt: To further test the fibrinolysis-activating properties of VHHs in an ex-vivo model of hyperfibrinolysis, a whole blood based assay can be used whereat citrate-anticoagulated whole blood in the presence of VHHs is spiked with tPA and clot formation and the fibrinolysis rate of the formed clot monitored by thrombelastometry after initiation of clotting by addition of CaCl2) solution containing recombinant TF.
FIG. 4. Influence of VHHs on endogenous fibrinolysis. (A) Citrate-anticoagulated whole blood was mixed with VHHs A11 or C5 and with tPA to achieve a final concentration of 0.5 μg/ml and clot formation was induced by addition of CaCl2) (0.2 M). (B) Lysis index at 60 min(C) Maximum lysis rates, and (D) lysis onset time were recorded. Mean values and SD were calculated out of three measurements.
(§1) The impact of VHHs on the fibrinolytic activity in plasma and whole blood was monitored using rotational thrombelastometry using the ROTEM delta system (TEM Innovations Ltd., Munich, Germany). […] After addition of 0.1 μg/ml tPA, coagulation was initiated by addition of recombinant tissue factor (Dade Innovin, Siemens Healthcare, Marburg, Germany) dissolved 1:100 in calcium chloride (0.2 M). The viscoelasticity of the formed clot was measured in terms of key parameters including clotting time, maximal clot firmness, maximum clot elasticity, maximum lysis, lysis index after 60 minutes, and lysis onset time.

[4] = system: citrate-anticoagulated pooled normal human plasma; assay: Rotational thrombelastometry clot formation parameters in plasma; format: biochemical; settings: VHHs or BPTI 2.4 μM, TXA 2.4 μg/ml; tPA 0.1 μg/ml
Description: FIG. 10. The impact of VHHs on the clot formation parameters in plasma monitored by rotational thrombelastometry. […] After addition of tPA to reach a final concentration of 0.1 μg/ml, coagulation was initiated by addition of recombinant tissue factor (Dade® Innovin®) dissolved 1:100 in calcium chloride solution (0.2 M). The viscoelasticity of the formed clot was measured in terms of (A) clotting time, (B) maximum clot firmness, and (C) maximum clot elasticity. A non-binder VHH (GFP-enhancer VHH) was used as negative control. Mean values and SD were calculated out of three measurements.
as §1

[5] = biological target: T2, plasminogen (Homo sapiens, UniProt P00747); assay: Plasmin generation assay (tPA-mediated plasminogen activation, purified system); format: biochemical; settings: at the assessed / higher concentrations
T2 construct: Plasma derived human Glu-plasminogen; purchased Haematologic Technologies, Inc. (plasminogen); Boehringer Ingelheim (tPA)
Description: In order to assess the influence of VHHs on tPA-mediated plasminogen activation, plasminogen was preincubated with increasing concentrations of VHHs. After addition of tPA, plasmin generation was measured over time using a fluorogenic plasmin peptide substrate.
FIG. 5. Influence of VHHs on tPA-mediated plasminogen activation. […] After addition of tPA (10 nM final concentration) plasmin generation was measured over time using the fluorogenic plasmin assay. The data are presented as mean±SD of three independent measurements.
Plasminogen (50 nM) was incubated with VHHs (2 μM to 0.2 μM) for 30 min at 37° C. in assay buffer. Subsequently, 20 μl of 50 nM tPA was added to the mixture and incubated at 37° C. After 3 hours of incubation at 37° C., 50 μl of the mixture were transferred to the wells of black F16 Fluoronunc modules and after addition of 50 μl of the plasmin-specific fluorogenic substrate (800 μM) fluorescence intensities were measured at λex of 360 nm and λem of 460 nm using the Synergy 2 microplate reader.

[6] = biological target: T1, plasmin; assay: Michaelis-Menten kinetics of plasmin-mediated cleavage of fluorogenic peptide substrate; format: biochemical; settings: plasmin 5 nM; VHHs 1 μM, BPTI 3 nM, TXA 7.86 mg/ml; w/o ligand 51.8
Description: Subsequently, 50 μl of the fluorogenic substrate (3.16-3,160 μM final concentration in assay buffer) was added. Substrate hydrolysis rates were monitored by kinetic measurements using the Synergy 2 microplate reader. Apparent Michaelis-Menten constants (Km) and the turn-over number (kcat) values for substrate hydrolysis were calculated from best fit values of the Michaelis-Menten equation and the catalytic efficiencies were expressed as ratios of kcat/Km.
CI, confidence interval. ^a The turnover number (kcat) was calculated using Vmax values extracted from Michaelis-Menten least squares fit.

[7] = biological target: T3, human plasminogen (human, UniProt P00747 20-810); assay: BLI (BLItz), His-tagged VHH on anti-HIS biosensor
T3 construct: mature; Purchased plasma-derived Glu-plasminogen or in-house plasma-purified plasminogen; also called human PLG; plasma derived human Glu-plasminogen

[8] = biological target: T4, tissue plasminogen activator (recombinant tPA, Actilyse) (UniProt P00750 36-562); assay: BLI (BLItz), His-tagged VHH on anti-HIS biosensor
T4 construct: Actilyse is recombinant human tPA (alteplase)

[9] = biological target: T5, human plasmin (human, UniProt P00747 97-580; P00747 581-810); assay: BLI (BLItz), His-tagged VHH on anti-HIS biosensor
T5 construct: domain: heavy chain or A-chain;domain: light chain that contains the serine protease domain; Two-chain protease derived from plasminogen; also called PLM; human Lys-plasmin

[10] = biological target: T6, mouse plasminogen (mouse, UniProt P20918 20-812); assay: BLI (BLItz), His-tagged VHH on anti-HIS biosensor
T6 construct: mature; also called mouse Glu-plasminogen

[11] = biological target: T7, mouse plasmin (mouse, UniProt P20918 98-581; P20918 582-812); assay: BLI (BLItz), His-tagged VHH on anti-HIS biosensor
T7 construct: domain: heavy chain or A-chain;domain: light chain that contains the serine protease domain; Purchased from Haematologic Technologies

[12] = biological target: T5, human plasmin; assay: cell-based or functional assay
[13] = biological target: T5, human plasmin; assay: cell-based or functional assay; remark: listed apart in the source
[14] = biological target: T5, human plasmin; assay: competition ELISA: C5 coated on the plate (10 µg/ml), plasmin 10 nM with free C5 (self-competition); bound plasmin read by hydrolysis of a fluorogenic substrate
Description: (§2) FIG. 2. VHHs competition ELISA. […] Data represent the mean±SD of two measurements.
(§3) To assess the competition of VHHs for similar or overlapping binding sites on the plasmin molecule, a competition ELISA was performed. Microtiter (96-well) plates were coated with VHHs (10 μg/ml in coating buffer, 100 μl/well) at 2-8° C. overnight. Wells were washed and non-specific protein-binding sites were blocked with 20 mg/ml bovine serum albumine (BSA) for 2 h at RT. After removing the blocking buffer, wells were overlaid with a reaction mixture containing plasmin (10 nM) and VHHs (0.316 nM-31.6 μM) in buffer (20 mM HEPES, 154 mM NaCl, BSA 1 mg/ml, pH 7.4) for 30 min at RT. After washing the amount of bound plasmin was quantified through hydrolysis rates of the fluorogenic plasmin substrate (300 μM, 100 μl/well). The fluorescence intensity measured in the absence of free VHHs was set as 100%.

[15] = biological target: T5, human plasmin; assay: competition ELISA: A11 coated on the plate (10 µg/ml), plasmin 10 nM with free C5 as competitor of immobilized A11; bound plasmin read by hydrolysis of a fluorogenic substrate
Description: as §2, §3

[16] = biological target: T1, plasmin; assay: Plasmin inhibition assay (α2-AP-mediated plasmin inactivation); format: biochemical; settings: α2AP alone, molar excess of α2AP over plasmin
Description: FIG. 7. Impact of VHHs binding on α2-AP-mediated plasmin inactivation. […] After 30 min of incubation, the residual activity of plasmin was measured by addition of 50 μl of the sample to 50 μl of a plasmin-specific fluorogenic substrate (400 μM). The plasmin activity in the wells in the absence of VHHs and α2AP was considered as 100% activity and relative residual plasmin activities calculated accordingly. The data are presented as mean±SD of three independent measurements.
After incubation for 30 min at 37° C., 50 μl of the mixture were transferred to the wells of black F16 Fluoronunc modules and 50 μl of plasmin-specific fluorogenic substrate (800 μM) were added and substrate hydrolysis measured at λex of 360 nm and λem of 460 nm. The plasmin activity in the reactions containing all reagents except α2-AP was set as 100%.

[17] = biological target: T5, human plasmin; assay: competition ELISA: A11 coated on the plate (10 µg/ml), plasmin 10 nM with free A11 (self-competition); bound plasmin read by hydrolysis of a fluorogenic substrate
Description: as §2, §3

[18] = biological target: T5, human plasmin; assay: competition ELISA: C5 coated on the plate (10 µg/ml), plasmin 10 nM with free A11 as competitor of immobilized C5; bound plasmin read by hydrolysis of a fluorogenic substrate
Description: as §2, §3

T5 sequence (P00747 97-580 limits assumed, chain 1 of 2): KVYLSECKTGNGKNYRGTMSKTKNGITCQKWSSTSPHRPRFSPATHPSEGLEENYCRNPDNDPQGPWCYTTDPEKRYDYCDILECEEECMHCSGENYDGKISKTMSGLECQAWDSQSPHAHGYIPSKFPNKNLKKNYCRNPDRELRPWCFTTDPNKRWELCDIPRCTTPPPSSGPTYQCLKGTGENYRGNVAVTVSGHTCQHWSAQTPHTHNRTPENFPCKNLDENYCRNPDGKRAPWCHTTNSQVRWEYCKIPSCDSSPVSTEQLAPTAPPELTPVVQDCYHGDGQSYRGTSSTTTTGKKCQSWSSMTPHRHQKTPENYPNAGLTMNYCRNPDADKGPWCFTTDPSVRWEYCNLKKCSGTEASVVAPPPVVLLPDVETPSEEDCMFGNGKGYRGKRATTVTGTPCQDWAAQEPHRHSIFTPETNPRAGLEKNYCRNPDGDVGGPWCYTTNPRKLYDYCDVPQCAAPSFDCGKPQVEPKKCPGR
T5 sequence (P00747 581-810 limits assumed, chain 2 of 2): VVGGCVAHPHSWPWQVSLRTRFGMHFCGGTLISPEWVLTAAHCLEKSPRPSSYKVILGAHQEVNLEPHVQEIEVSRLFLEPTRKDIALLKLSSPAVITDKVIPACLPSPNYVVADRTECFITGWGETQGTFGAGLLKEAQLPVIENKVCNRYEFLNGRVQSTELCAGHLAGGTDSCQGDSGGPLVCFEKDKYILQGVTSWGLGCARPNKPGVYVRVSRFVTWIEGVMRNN
T1 sequence (P00747 97-580 limits assumed): as the sequence (P00747 97-580 limits assumed, chain 1 of 2) above
T1 sequence (P00747 581-810 limits assumed): as the sequence (P00747 581-810 limits assumed, chain 2 of 2) above
T3 sequence (P00747 20-810 limits assumed): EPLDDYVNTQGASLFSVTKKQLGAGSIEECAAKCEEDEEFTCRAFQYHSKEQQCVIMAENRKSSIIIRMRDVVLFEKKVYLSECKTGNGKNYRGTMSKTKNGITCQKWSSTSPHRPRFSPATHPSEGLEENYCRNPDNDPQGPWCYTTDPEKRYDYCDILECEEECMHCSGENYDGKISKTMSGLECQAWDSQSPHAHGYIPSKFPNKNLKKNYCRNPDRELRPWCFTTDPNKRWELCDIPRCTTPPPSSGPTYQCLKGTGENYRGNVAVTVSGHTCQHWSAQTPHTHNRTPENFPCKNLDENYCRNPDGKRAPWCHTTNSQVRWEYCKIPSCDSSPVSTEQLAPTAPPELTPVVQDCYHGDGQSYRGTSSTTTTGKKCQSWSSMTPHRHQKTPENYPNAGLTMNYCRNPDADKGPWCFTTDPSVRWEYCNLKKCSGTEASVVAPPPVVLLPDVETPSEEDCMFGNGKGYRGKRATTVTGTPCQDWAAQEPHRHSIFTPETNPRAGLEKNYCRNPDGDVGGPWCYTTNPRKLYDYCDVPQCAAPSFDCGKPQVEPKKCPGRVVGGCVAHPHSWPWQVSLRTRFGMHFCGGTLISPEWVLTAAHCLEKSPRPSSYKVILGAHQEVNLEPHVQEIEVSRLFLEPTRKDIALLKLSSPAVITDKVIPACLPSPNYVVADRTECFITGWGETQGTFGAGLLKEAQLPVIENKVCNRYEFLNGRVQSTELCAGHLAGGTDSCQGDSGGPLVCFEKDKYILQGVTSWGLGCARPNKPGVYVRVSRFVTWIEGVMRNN
T6 sequence (P20918 20-812 limits assumed): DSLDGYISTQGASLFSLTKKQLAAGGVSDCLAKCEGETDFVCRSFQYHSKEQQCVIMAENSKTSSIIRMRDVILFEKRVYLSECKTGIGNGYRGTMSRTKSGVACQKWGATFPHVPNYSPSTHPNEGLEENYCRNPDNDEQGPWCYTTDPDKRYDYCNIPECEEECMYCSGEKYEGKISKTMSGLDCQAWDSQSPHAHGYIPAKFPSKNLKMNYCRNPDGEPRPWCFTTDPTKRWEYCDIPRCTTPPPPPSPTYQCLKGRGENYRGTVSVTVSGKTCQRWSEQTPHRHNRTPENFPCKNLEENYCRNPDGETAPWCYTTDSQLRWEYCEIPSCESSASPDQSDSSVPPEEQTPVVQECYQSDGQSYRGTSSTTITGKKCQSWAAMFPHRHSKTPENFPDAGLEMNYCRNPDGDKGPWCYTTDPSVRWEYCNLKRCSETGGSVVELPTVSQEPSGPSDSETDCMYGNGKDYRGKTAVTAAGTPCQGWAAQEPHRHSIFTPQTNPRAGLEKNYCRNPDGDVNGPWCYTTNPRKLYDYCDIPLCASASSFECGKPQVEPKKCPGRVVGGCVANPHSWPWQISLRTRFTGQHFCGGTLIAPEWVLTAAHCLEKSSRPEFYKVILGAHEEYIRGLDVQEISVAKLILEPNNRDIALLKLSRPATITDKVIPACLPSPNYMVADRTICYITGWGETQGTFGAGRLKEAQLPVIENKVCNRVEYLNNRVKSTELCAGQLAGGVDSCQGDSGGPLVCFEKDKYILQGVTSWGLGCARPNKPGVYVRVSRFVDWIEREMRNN
T7 sequence (P20918 98-581 limits assumed, chain 1 of 2): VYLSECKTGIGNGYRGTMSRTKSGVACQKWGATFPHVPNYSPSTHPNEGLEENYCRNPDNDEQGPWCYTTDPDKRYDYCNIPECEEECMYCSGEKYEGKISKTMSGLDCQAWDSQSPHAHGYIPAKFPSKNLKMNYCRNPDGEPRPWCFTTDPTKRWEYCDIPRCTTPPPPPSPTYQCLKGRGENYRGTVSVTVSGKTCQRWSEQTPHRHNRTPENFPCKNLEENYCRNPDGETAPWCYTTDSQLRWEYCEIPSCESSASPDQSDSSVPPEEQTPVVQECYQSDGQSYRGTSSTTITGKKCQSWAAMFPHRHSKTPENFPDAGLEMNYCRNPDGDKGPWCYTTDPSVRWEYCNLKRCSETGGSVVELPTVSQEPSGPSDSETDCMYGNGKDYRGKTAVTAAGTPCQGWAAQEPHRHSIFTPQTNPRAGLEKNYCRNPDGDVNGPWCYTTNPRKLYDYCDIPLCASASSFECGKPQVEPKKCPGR
T7 sequence (P20918 582-812 limits assumed, chain 2 of 2): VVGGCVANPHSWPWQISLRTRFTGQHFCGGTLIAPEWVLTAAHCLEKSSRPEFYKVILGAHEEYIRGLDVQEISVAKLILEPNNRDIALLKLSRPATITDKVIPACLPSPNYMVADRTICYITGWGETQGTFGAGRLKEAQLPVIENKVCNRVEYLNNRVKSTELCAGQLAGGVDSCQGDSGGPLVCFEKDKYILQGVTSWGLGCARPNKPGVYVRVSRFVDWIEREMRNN
T4 sequence (P00750 36-562 limits assumed): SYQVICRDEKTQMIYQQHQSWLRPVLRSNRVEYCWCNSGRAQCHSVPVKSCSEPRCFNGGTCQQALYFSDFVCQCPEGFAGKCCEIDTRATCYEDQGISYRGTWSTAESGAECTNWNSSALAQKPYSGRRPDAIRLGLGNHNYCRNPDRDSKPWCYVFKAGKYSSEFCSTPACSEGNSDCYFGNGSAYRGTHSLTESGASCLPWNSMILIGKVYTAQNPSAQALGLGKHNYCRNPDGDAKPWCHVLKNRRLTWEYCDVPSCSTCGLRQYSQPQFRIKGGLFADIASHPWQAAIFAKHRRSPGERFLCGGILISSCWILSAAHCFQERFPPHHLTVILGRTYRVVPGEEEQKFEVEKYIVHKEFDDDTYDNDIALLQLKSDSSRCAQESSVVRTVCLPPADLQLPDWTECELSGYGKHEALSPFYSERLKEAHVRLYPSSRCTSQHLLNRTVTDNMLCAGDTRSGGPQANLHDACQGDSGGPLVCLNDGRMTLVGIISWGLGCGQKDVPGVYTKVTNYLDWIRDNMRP
T2 sequence (P00747 20-810 limits assumed): as the sequence (P00747 20-810 limits assumed) above

Molecule | Kd [7] [nM] | Kd [8] [nM] | Kd [9] [nM] | Kd [10] [nM] | Kd [11] [nM] | Kcat/Km of plasmin-mediated cleavage of fluorogenic peptide substrate, VHH 1 µM [13] [µM⁻¹ s⁻¹] | kcat of plasmin-mediated cleavage of fluorogenic peptide substrate, VHH 1 µM [13] [s⁻¹] | also measured
NC[C@H]1CC[C@H](C(=O)O)CC1 [TXA, tranexamic acid, reference compound] | – | – | – | – | – | – | – | protection of plasmin from autocatalytic degradation [1]: more effective than lysine; maximal rate of inhibition of plasmin-mediated cleavage of FVa ([2]; TXA 316 μM or higher): 48%; FVa cleavage at lower TXA concentrations ([2]; lower TXA concentrations): accelerated; effect on lysis compared to VHHs (FIG. 4C, maximum lysis rates) [3]: inhibition of lysis; effect on fibrin clot formation parameters (clotting time, maximum clot firmness, maximum clot elasticity) [4]: does not affect; inhibition of plasmin generation at higher concentrations [5]: plasmin generation is blocked; kcat × 10^3 (s^−1) mean (95% CI) [6]: 42.1 (40-44) s^−1
B1 | > 100 | 213 | 6.8 | > 1000 | 172 | 244 | 69900 | increase in plasmin peptide substrate conversion, at molar ratio of VHH over plasmin of 500 [12]: ~2.5 fold; IC50 (read off the curve) [14]: ~2 µM; IC50 (read off the curve) [15]: ~500 nM
B2 | – | – | – | – | – | – | – | residual plasmin activity [16]: < 0.1%
B3 | > 100 | 941 | 4.7 | > 1000 | 87.3 | 228 | 67200 | IC50 (read off the curve) [17]: ~500 nM; IC50 (read off the curve) [18]: ~1000 nM; increase in plasmin peptide substrate conversion, at molar ratio of VHH over plasmin of 158 [12]: ~2.5 fold
